The Kd is the equilibrium constant for the complex coming apart.

This is an account of results in PMC10036535, “A naturally occurring mini-alanyl-tRNA synthetase”.

Data set [1] deals with TuAlaRS (Tupanvirus (of Acanthamoeba castellanii)). Nature of the data set: EMSA. The note with it: none (in vitro transcript). For orientation: In EMSA bound probe runs differently from free probe, usually more slowly.
The target of data set [2] is T1, EcAlaRS (Escherichia coli, UniProt P00957 1-876).
T1 sequence: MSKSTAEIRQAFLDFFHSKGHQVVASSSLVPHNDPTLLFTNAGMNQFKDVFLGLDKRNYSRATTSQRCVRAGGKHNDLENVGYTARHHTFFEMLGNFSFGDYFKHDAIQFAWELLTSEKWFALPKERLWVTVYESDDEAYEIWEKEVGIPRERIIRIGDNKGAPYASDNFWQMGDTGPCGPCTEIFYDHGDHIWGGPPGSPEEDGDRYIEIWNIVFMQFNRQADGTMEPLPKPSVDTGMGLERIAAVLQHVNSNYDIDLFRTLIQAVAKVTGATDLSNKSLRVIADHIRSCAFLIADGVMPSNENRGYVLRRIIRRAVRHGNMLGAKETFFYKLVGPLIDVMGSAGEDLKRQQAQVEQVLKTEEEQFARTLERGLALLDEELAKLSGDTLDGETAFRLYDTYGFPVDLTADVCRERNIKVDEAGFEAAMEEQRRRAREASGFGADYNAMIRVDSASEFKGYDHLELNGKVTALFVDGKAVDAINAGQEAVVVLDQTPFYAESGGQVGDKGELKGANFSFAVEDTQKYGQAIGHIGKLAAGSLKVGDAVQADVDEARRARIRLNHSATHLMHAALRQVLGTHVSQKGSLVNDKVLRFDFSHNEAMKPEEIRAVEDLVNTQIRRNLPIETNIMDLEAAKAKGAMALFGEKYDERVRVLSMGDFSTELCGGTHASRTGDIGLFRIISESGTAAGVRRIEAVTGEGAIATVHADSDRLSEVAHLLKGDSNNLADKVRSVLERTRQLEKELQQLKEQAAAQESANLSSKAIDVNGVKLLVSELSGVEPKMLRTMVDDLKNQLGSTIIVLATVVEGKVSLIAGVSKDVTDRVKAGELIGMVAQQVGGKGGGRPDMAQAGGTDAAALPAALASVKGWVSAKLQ
Nature of the data set: EMSA; 5 mM Mg2+; hardly affected vs WT; EMSA: 20 mM HEPES pH 7.5, 20 mM KCl, 5 mM MgCl2, 2 mM DTT, 0.1 µM RNA, 10 min on ice, protein 0.0625-32 µM; 5% native PAGE, 0.5x TBE, 4 °C. The note with it: protein: recombinant; label: 5'-32P; tRNA cloverleaf.

Data set [3] deals with T1, EcAlaRS. Nature of the data set: EMSA; 5 mM Mg2+; EMSA: 20 mM HEPES pH 7.5, 20 mM KCl, 5 mM MgCl2, 2 mM DTT, 0.1 µM RNA, 10 min on ice, protein 0.0625-32 µM; 5% native PAGE, 0.5x TBE, 4 °C. The settings on record: protein: recombinant; label: 5'-32P; tRNA cloverleaf.

In the case of “GGAGCUAUAGCUUCUAGCUCCACCA [Ec-microAla A3:U70]”, the Kd fold increase vs WT (fold increase in Kd vs WT) in data set [1] came out at 3.

As to GGGAUUUUAGCUUCUAAUUCUACCA [Ce-microAla], the Kd in data set [1] turned out to be 400 nM.

Regarding “GGGGCUAUAGCUCAGCUGGGAGAGCGCCUGCUUUGCAAGCAGGAGGUCUGCGGUUCGAUCCCGCAUAGCUCCACCA [EctRNAAla]”, the Kd in data set [1] was found to be 300 nM.

On to “GGGGCUAUAGCUUCUAGCCCCACCA [Ec-microAla G3:C70]”, for which the Kd fold increase vs WT (fold increase in Kd vs WT) in data set [1] was determined as 3.

In turn, GGGGCUAUAGCUUCUAGCUCCACCA [Ec-microAla] showed a Kd in data set [1] of 300 nM.

B1: EctRNAAla CCA to UUG (structured_RNA)
RNA: GGGGCUAUAGCUCAGCUGGGAGAGCGCCUGCUUUGCAAGCAGGAGGUCUGCGGUUCGAUCCCGCAUAGCUCCAUUG
modifications: none (in vitro transcript)
As for B1, the binding result in the data set with EcAlaRS [2] is listed as “binds”.

B2: EctRNAAla (structured_RNA)
RNA: GGGGCUAUAGCUCAGCUGGGAGAGCGCCUGCUUUGCAAGCAGGAGGUCUGCGGUUCGAUCCCGCAUAGCUCCACCA
modifications: none (in vitro transcript)
For B2, the Kd with EcAlaRS [3] turned out to be 1000 nM.

B3: EctRNAAla delCCA (structured_RNA)
RNA: GGGGCUAUAGCUCAGCUGGGAGAGCGCCUGCUUUGCAAGCAGGAGGUCUGCGGUUCGAUCCCGCAUAGCUCCA
modifications: none (in vitro transcript)
As to B3, the binding result in the data set with EcAlaRS [2] is given as “binds”.
